T1: PAR-2 (Homo sapiens, UniProt P55085)
T1 sequence (P55085 26-397): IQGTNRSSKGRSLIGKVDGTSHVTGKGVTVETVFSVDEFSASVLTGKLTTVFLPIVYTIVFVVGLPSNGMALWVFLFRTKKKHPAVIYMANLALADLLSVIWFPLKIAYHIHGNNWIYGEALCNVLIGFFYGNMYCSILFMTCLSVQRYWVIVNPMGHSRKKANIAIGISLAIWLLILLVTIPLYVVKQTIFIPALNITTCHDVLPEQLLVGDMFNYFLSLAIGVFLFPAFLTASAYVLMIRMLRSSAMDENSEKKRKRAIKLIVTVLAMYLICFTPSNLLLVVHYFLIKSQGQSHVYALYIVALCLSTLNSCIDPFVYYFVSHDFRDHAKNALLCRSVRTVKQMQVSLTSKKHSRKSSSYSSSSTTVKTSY


How the values were obtained:
Sprague Dawley rats = assay: Carrageenan paw edema in Sprague Dawley rat (plethysmography); format: in vivo; settings: antibodies IP 1.5 mg/rat, indomethacin 5 mg/kg
Protocol: (§1) This example describes the effects of PAR-2 antibodies on paw edema in an acute AIA model substantially as described previously. Briefly, 6-8 week old Sprague Dawley or Lewis rats (Charles River Laboratories, Wilmington, Mass.) were injected subcutaneously (SC) in the plantar region of the hind paw with 1% lambda carrageenan in one hind paw and control (saline) in the other. Blocking PAR-2 monoclonal antibody (1A1) or control (positive or negative control; see footnotes to Table 4) was administered intraperitoneally (IP) eighteen hours prior to adjuvant injection at 1.5 mg/rat (approximately 8-10 mg/kg), swelling was then measured by plethysomgraphy at selected time points. Data were expressed as volume of water in milliliters (mL) displaced per paw versus baseline measurements for that paw.

Lewis rats [1] = assay: Acute adjuvant-induced arthritis (C/K) model, knee joint thickness; format: in vivo; settings: Lewis rat, group mean ± SEM
Protocol: This example describes acute and chronic models of arthritis. In both models, animals are anesthetized, for example by Ketamine/Xylazine mixture (mouse mix or rat mix, respectively) or isoflurane for all intraarticular (IA), periarticular (PA) injections or intradermal (ID) injections.
Joint injections, IA or PA, are targeted at either knees or hind limb paws. PA injections are equally divided across four sites surrounding the joint of interest. Paw injections are administered ID into the plantar area of the hind paw. To serve as an internal control, one knee or hind-limb paw is injected with vehicle alone or sterile PBS. Preparation of the injection area includes shaving the joint area after animals are anesthetized, and scrubbing with an iodine solution followed by an alcohol disinfectant. All articular injections are given with a 30-gauge needle or equivalent, and when needed by a gastight (i.e., Hamilton) syringe, for small injection volumes (i.e. 10 microL).
For induction of acute AIA (aAIA), animals are injected on day zero (D0) with 1-4% lambda-carrageenan and 1-4% kaolin (C/K) by IA injection in saline. Concentrations of both compounds are dependent on intended disease severity. Total injection volumes for the inducing agent are between 10-20 microL for mice and 60-80 microL for rat. Both concentration and injection volume are consistent with published methodologies (J Clin Invest. 2003; 111(1):35-41, and J Pharmacol Exp Ther. 2006; 316(3):1017-24). Alternatively, specific PAR-2 peptide agonists, or other activators of inflammation (such as trypsin, or human beta-tryptase [J Clin Invest. 2003; 111(1):35-41, J Pharmacol Exp Ther. 2006; 316(3):1017-24, J Pharmacol Sci. 2005 97(1):38-42, and Br J Pharmacol. 1999 127(5):1083-90]) or the equivalent, may be used. Concentrations used are selected for intended disease severity, and total injection volumes are appropriate to the animal being injected.
For both acute and chronic AIA studies, caliper measurements of joint diameter are taken of all joints of interest prior to any injection. Tracking of disease may include caliper measurements of joint diameter as well as flexible tape measurements of joint circumference, and visual scoring. Alternative methods (i.e., use of a plethysmometer) may also be used. Severity of cAIA is scored by one or both of the criteria shown below:
In this manner, 6-8 week old Lewis rats were injected with C/K plus treatment (or control) in the left knee, and negative control in each right knee, as for the acute model. Joint thickness was measured at set time points after treatment, using an average of three caliper readings. The change in thickness of the left knee as compared to the right knee was expressed as percent change, and is shown in Table 3 below.

PAR-2 = molecular target: T1, PAR-2; assay: FLIPR assay for Ca2+ mobilization; format: cell-based
Description: Hybridoma clones thus generated are screened for reactivity with PAR-2. Initial screening of hybridoma supernatants may utilize a peptide ELISA, a whole cell ELISA and/or a cell-based assay suitable for high-throughput screening (fluorometric microvolume assay technology or FMAT, substantially as described by Fiscella, et al., Nature Biotechnology 21:302-307; 2003). Hybridomas that are positive in this screening method may be further cultured to provide larger amounts of antibody, which can then be purified as described below and screened by additional cell-based assay(s) (for example, a flash plate assay using cells co-expressing apoaequorin, a Ca2+-sensitive photoprotein, substantially as described by Le Poul et al., J. Biomol. Screen. 7(1):57-65; 2002, and PAR-2), or a fluorometric imaging plate reader (FLIPR) assay, which is used to determine changes in intracellular Ca2+ levels, substantially as described in S. Pitchford, Genetic Engineering News vol. 18, Number 15 (1998) and/or Sullivan et al., Methods in Molecular Biology vol. […]
(§2) Several PAR-2 antibodies were tested in different assay formats; Table 2 summarizes the results. IC50 values were determined in a FLIPR assay for Ca2+ mobilization described previously; binding to the upstream region of the cleavage site versus the downstream region of the cleavage site was determined using the Western blot assay described previously.

[2] = molecular target: T2, N-terminal PAR-2/Fc (full length and truncated) (Homo sapiens, UniProt P55085); assay: Western blot, binding to uncleaved versus clipped N-terminal PAR-2/Fc; settings: for Binding to Cleavage Site Down stream: downstream binder binds both full length and truncated PAR-2-Fc; for Binding to Cleavage Site Up stream: upstream binder binds only full-length PAR-2/Fc
T2 construct: made in house; host or cells: CHO cells (10% FCS for uncleaved; serum-free for clipped)
T2 sequence (P55085 with tags, fused parts or gaps limits assumed): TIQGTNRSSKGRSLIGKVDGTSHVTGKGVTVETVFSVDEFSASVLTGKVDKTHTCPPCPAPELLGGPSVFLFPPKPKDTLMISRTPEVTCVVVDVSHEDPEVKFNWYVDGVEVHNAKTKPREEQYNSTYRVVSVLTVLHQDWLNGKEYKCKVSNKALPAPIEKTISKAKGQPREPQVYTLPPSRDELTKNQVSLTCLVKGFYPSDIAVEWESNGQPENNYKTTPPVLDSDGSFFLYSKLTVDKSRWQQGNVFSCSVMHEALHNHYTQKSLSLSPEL
Description: N-terminal PAR-2/Fc polypeptide (SEQ ID NO:6) is expressed in suitable mammalian cells such as CHO cells. Expression supernatant from CHO expression cells cultured in serum-free media contain a CHO cell trypsin-like serine protease that cleaves PAR-2/Fc at the activation Arg-Ser bond, generating the “clipped” version of the PAR-2/Fc polypeptide. CHO expression cells cultured in 10% fetal calf serum (which contains normal levels of plasma proteinase inhibitors at concentrations far in excess of the concentration of the CHO cell trypsin-like serine protease) express uncleaved N-terminal PAR-2/Fc in culture supernatants. Both clipped and uncleaved proteins are purified using methods that are suitable for isolation and purification of proteins comprising an Fc regions (for example, using a MabSelect™ resin systems, from GE Healthcare, Piscataway, N.J.)). The resultant purified Fc-constructs are analyzed by amino terminal sequence analysis (Edman degradation), size exclusion chromatrography, absorbance spectral scan, and mass spectroscopy, as needed.
To analyze binding to uncleaved versus cleaved PAR-2, various amounts of purified uncleaved and clipped N-terminal PAR2-Fc are subjected to SDS-PAGE using 8-16% polyacrylamide gradient gels (Novex gels, Invitrogen Life Technologies) in a Tris-Glycine buffer system. Gel lanes containing See Blue standards (Novex, Invitrogen Life Technologies) for molecular weight identification are also included. Following electrophoresis, proteins are transferred from gels onto nitrocellulose membranes using a Novex XCell II Blot Module (Invitrogen Life Technologies). Membranes are blocked with 1:1, Odyssey blocking buffer, OBB, (LI-COR Biosciences):TBS (Tris Buffer Saline) overnight at 4 C with shaking. Antibodies to be analyzed are diluted in 1:1 OBB:TBS at a desired final concentration for 1 hr at room temperature. Membranes are washed extensively with 0.1% Tween 20 in TBS (3-4 changes of 100 ml over ˜1 hr). Membranes are then exposed to the appropriate secondary antibody-Alexa680 (Molecular Probes, Invitrogen Life Technologies) conjugate (goat anti-rabbit IgG, or goat anti-mouse IgG) diluted 1:5000 in 1:1 (OBB:TBS) for 1 hr at room temperature. Membranes are washed as described above, and if desired, analyzed using a LI-COR Odyssey Infrared Imaging System (LI-COR Biosciences).
as §2

Lewis rats [3] = assay: Carrageenan paw edema in Lewis rat (plethysmography); format: in vivo; settings: IP 18 h prior to carrageenan, 1.5 mg/rat
Protocol: as §1

rats = assay: Paw edema study, further experiments (IP versus SC, dose dependence); format: in vivo, rat
[4] = Pharmacokinetic analysis in the paw edema study; format: in vivo, rat; settings: SC administered

Molecule | Paw Edema, volume of water displaced per paw versus baseline (Sprague Dawley rats; 0 Hr) [mL] | Paw Edema, volume of water displaced per paw versus baseline (Sprague Dawley rats; 2 Hr) [mL] | Paw Edema, volume of water displaced per paw versus baseline (Sprague Dawley rats; 4 Hr) [mL] | Paw Edema, volume of water displaced per paw versus baseline (Sprague Dawley rats; 6 Hr) [mL] | change in thickness of the left knee as compared to the right knee, percent change (Lewis rats [1]; 0 Hr) [%] | IC50 (PAR-2) [µM] | Binding to Cleavage Site Down stream [2] | Paw Edema, volume of water displaced per paw versus baseline (Lewis rats [3]; 0 Hr) [mL] | Paw Edema, volume of water displaced per paw versus baseline (Lewis rats [3]; 2 Hr) [mL] | Binding to Cleavage Site Up stream [2] | further results
COc1ccc2c(c1)c(CC(=O)O)c(C)n2C(=O)c1ccc(Cl)cc1 [Indomethacin, reference compound] | 0.00 ± 0.00 | 0.26 ± 0.22 | 0.28 ± 0.08 | 0.49 ± 0.16 | – | – | – | – | – | – | –
SLIGRL [reference compound] | – | – | – | – | 0.00 ± 0.00 | – | – | – | – | – | –
2C6: binding non-blocking anti-PAR2 mAb; heavy SEQ ID NO: 23, light SEQ ID NO: 25 (antibody, listed as Homo sapiens, V domains shown) VH: QVQLVQSGAEVKKPGASVKVSCKASGYTFTGYFFHWVRQAPGQGLEWVGWINPNSGATHFAQKFQGRVTMTRDTSISTAYMELSRLRSDDTAVYYCARDGSNWNRDYGMDVWGQGTTVTVSS VL: QSVLTQPPSASGTPGQRVTISCSGSSSNIGINHVYWYQQLPGTAPKIFIYRNNQRPSGVPDRFSGSKSGTSASLAISGLRSEDEADYYCAVWDDSLSGVVFGGGTKLTVLG | 0.00 ± 0.00 | 0.57 ± 0.08 | 1.06 ± 0.16 | 1.13 ± 0.08 | – | > 1 | xx | 0.00 ± 0.00 | 0.22 ± 0.02 | – | Paw Edema, volume of water displaced per paw versus baseline (Lewis rats [3]; 4 Hr): 0.22 ± 0.05 mL; Paw Edema, volume of water displaced per paw versus baseline (Lewis rats [3]; 6 Hr): 0.32 ± 0.06 mL; Paw Edema, volume of water displaced per paw versus baseline (Lewis rats [3]; 8 Hr): 0.51 ± 0.11 mL
9B12: anti-PAR-2 monoclonal antibody; heavy SEQ ID NO: 27, light SEQ ID NO: 29 (antibody, listed as Homo sapiens, V domains shown) VH: QVQLVESGGGVVQPGRSLRLSCAASGFTFSSYGMHWVRQAPGKGLEWVAVIWYDGSNKYYADSVKGRFTISRDNSKNTLYLQMNSLRAEDTAVYYCARDLGAAAGTGFDYWGQGTLVTVSS VL: QSVLTQPPSVSAAPGQKVTISCSGSSSNIGNNYVSWYQQLPGTAPKLLIYDNNKRPSGIPDRFSGSKSGTSATLGITGLQTGDEADYYCGTWDSSLSAGVVFGGGTKLTVL | – | – | – | – | – | > 1 | xx | – | – | – | –
1A1: anti-PAR-2 monoclonal antibody, blocking; heavy SEQ ID NO: 9, light SEQ ID NO: 11 (antibody, listed as Homo sapiens, V domains shown) VH: EVQLVQSGAEVKKPGESLKISCKGSGYNFISHWIGWVRQMPGKGLEWMGMIYPGDSDTRYSPSFQGQVTISADKSINTAYLQWRSLKASDTAMYFCARHGGITGTTFYYDFGMDVWGQGTTVTVSS VL: SYELTQPPSVSVSPGQTARITCSGDALPKQYASWYQQKPGQAPLLVIYRDSERPSGLPERFSGSSSGTTVTLTISGVQAEDEADYYCQSADSGGSYVFGTGTKVTVL | 0.00 ± 0.00 | – | – | – | 0.00 ± 0.00 | – | – | 0.00 ± 0.00 | 0.15 ± 0.06 | xxx | change in thickness of the left knee as compared to the right knee, percent change (Lewis rats [1]; 2 Hr): 1.10 ± 1.13%; change in thickness of the left knee as compared to the right knee, percent change (Lewis rats [1]; 72 Hr): 3.48 ± 0.66%; effect on paw swelling (rats; administered IP): significantly decreased paw swelling; inhibition of swelling, dose dependence (rats; administered IP): dose-dependent manner; effect on paw swelling (rats; administered SC): not when administered SC; bioavailability [4]: suboptimal
1C7: anti-PAR-2 monoclonal antibody; heavy SEQ ID NO: 17, light SEQ ID NO: 19 (antibody, listed as Homo sapiens, V domains shown) VH: EVQLVQSGAEVKKPGESLKISCKGSGYSFTSYWIGWVRQMPGKGLEWMGIIYPGDSDTRYSPSFQGQVTISADKSIRTAYLQWSSLKASDTAMYYCARHKGITGTTFYYDYGMDVWGQGTTVTVSS VL: SYELTQPPSVSVSPGQTARITCSGEALPKQYASWYQQKPGQAPVLVIYKDSERPSGIPERFSGSSSGTTVTLTISGVQAEDEADYYCQSADSNGAYVFGTGTKVTVL | – | – | – | – | – | – | – | – | – | xxx | –

— patent US8470556B2, “Nucleic acids that encode antigen binding proteins that bind PAR-2” (Amgen Inc., priority 2007, dated 2013)
